IntAct's records for PubMed 23569223

B1: Torsin-1A (Homo sapiens), O14656 (parent)
chain: MKLGRAVLGLLLLAPSVVQAVEPISLGLALAGVLTGYIYPRLYCLFAECCGQKRSLSREALQKDLDDNLFGQHLAKKIILNAVFGFINNPKPKKPLTLSLHGWTGTGKNFVSKIIAENIYEGGLNSDYVHLFVATLHFPHASNITLYKDQLQLWIRGNVSACARSIFIFDEMDKMHAGLIDAIKPFLDYYDLVDGVSYQKAMFIFLSNAGAERITDVALDFWRSGKQREDIKLKDIEHALSVSVFNNKNSGFWHSSLIDRNLIDYFVPFLPLEYKHLKMCIRVEMQSRGYEIDEDIVSRVAEEMTFFPKEERVFSDKGCKTVFTKLDYYYDD

Variants of: B1
Details: with toip2_human TOR1AIP2, Q8NFQ8

Variant | effect of a mutation on the interaction
MKLGRAVLGLLLLAPSVVQAVEPISLGLALAGVLTGYIYPRLYCLFAECCGQKRSLSREALQKDLDDNLFGQHLAKKIILNAVFGFINNPKPKKPLTLSLHGWTGTGKNFVSKIIAENIYEGGLNSDYVHLFVATLHFPHASNITLYKDQLQLWIRGNVSACARSIFIFDQMDKMHAGLIDAIKPFLDYYDLVDGVSYQKAMFIFLSNAGAERITDVALDFWRSGKQREDIKLKDIEHALSVSVFNNKNSGFWHSSLIDRNLIDYFVPFLPLEYKHLKMCIRVEMQSRGYEIDEDIVSRVAEEMTFFPKEERVFSDKGCKTVFTKLDYYYDD [E171Q] | with no effect

Variants of: B1
Details: with toip1_human TOR1AIP1, Q5JTV8
toip1_human TOR1AIP1, Q5JTV8, sequence (Q5JTV8 whole entry): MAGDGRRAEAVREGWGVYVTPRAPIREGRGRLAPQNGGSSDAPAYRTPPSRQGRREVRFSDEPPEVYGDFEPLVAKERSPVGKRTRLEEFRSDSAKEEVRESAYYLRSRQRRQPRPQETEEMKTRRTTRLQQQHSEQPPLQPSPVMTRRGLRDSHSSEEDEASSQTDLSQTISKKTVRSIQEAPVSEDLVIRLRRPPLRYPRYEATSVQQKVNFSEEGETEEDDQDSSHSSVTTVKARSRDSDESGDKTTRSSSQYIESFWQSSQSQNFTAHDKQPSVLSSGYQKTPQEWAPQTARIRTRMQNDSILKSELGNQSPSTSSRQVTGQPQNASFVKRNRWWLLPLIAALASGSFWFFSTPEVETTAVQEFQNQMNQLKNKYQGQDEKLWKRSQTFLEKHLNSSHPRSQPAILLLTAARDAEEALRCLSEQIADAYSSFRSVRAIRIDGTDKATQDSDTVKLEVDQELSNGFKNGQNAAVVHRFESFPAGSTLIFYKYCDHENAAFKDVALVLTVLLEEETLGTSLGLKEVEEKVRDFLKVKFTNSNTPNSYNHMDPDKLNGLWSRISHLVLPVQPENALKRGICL

Variant | effect of a mutation on the interaction
MKLGRAVLGLLLLAPSVVQAVEPISLGLALAGVLTGYIYPRLYCLFAECCGQKRSLSREALQKDLDDNLFGQHLAKKIILNAVFGFINNPKPKKPLTLSLHGWTGTGKNFVSKIIAENIYEGGLNSDYVHLFVATLHFPHASNITLYKDQLQLWIRGNVSACARSIFIFDQMDKMHAGLIDAIKPFLDYYDLVDGVSYQKAMFIFLSNAGAERITDVALDFWRSGKQREDIKLKDIEHALSVSVFNNKNSGFWHSSLIDRNLIDYFVPFLPLEYKHLKMCIRVEMQSRGYEIDEDIVSRVAEEMTFFPKEERVFSDKGCKTVFTKLDYYYDD [E171Q] | with no effect
